Experimental data: patent US20180155451A1 (published 2018)

T1: FcγRIIa R (FcγRIIa, allotype R, Arg at position 131), extracellular domain with C-terminal His tag (human, UniProt P12318 34-217)
T1 construct: extracellular domain; soluble receptor used as Biacore analyte; also called 2aR; FcgRIIa R
T1 sequence (looked up): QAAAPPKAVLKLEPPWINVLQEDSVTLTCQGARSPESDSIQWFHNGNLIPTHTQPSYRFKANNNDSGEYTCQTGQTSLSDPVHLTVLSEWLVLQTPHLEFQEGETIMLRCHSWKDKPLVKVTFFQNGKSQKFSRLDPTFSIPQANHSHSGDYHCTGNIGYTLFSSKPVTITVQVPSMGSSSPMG

T2: FcγRIIb extracellular domain with C-terminal His tag (human, UniProt P31994 43-217)
T2 construct: extracellular domain; Soluble receptor expressed in FreeStyle293 cells; analyte in Biacore; also called FcgRIIb; 2b; not shown: His tag at the C terminus
T2 sequence (looked up): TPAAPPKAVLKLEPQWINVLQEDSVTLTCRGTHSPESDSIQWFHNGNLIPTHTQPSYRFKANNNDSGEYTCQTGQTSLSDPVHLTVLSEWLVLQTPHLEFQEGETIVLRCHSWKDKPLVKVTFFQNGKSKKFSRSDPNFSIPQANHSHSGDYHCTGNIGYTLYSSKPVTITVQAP

T3: FcγRIIb, extracellular domain with C-terminal His tag (human, UniProt P31994 43-217)
T3 construct: extracellular domain; soluble receptor used as Biacore analyte; also called 2b; FcgRIIb
T3 sequence (looked up): T2 sequence (looked up)

B1: GpH7-A5/GpH7-B3 variant E333_11K/GpL16-k0 (antibody, human IgG1, kappa)
heavy 1: not shown
heavy 2: not shown
light: DIVMTQSPLSLPVTPGEPASISCQASESLVHSNRNTYLHWYLQKPGQSPQLLIYKVSNRFSGVPDRFSGSGSGTDFTLKISRVEAEDVGVYYCSQNTHVPPTFGQGTKVEIERTVAAPSVFIFPPSDEQLKSGTASVVCLLNNFYPREAKVQWKVDNALQSGNSQESVTEQDSKDSTYSLSSTLTLSKADYEKHKVYACEVTHQGLSSPVTKSFNRGEC
notes: He Ab: heterodimerized anti-glypican-3 IgG1, substitution in one H chain only; also called He Ab E333K
B2: GpH7-A5/GpH7-B3 variant E333_12R/GpL16-k0 (antibody, human IgG1, kappa)
heavy 1: not shown
heavy 2: not shown
light: B1 light
notes: He Ab: heterodimerized anti-glypican-3 IgG1, substitution in one H chain only; also called He Ab E333R
B3: heterodimerized antibody GpH7-A5/GpH7-B3 variant S267_04F/GpL16-k0 (antibody, human IgG1, kappa)
heavy 1: not shown
heavy 2: not shown
light: B1 light
notes: He Ab: anti-glypican-3 IgG1, alteration in one H chain only; also called He Ab
B4: heterodimerized antibody GpH7-A5/GpH7-B3 variant S267_06M/GpL16-k0 (antibody, human IgG1, kappa)
heavy 1: not shown
heavy 2: not shown
light: B1 light
notes: as for B3
B5: heterodimerized antibody GpH7-A5/GpH7-B3 variant S267_07I/GpL16-k0 (antibody, human IgG1, kappa)
heavy 1: not shown
heavy 2: not shown
light: B1 light
notes: as for B3
B6: heterodimerized antibody GpH7-A5/GpH7-B3 variant S267_09D/GpL16-k0 (antibody, human IgG1, kappa)
heavy 1: not shown
heavy 2: not shown
light: B1 light
notes: as for B3
B7: heterodimerized antibody GpH7-A5/GpH7-B3 variant S267_10E/GpL16-k0 (antibody, human IgG1, kappa)
heavy 1: not shown
heavy 2: not shown
light: B1 light
notes: as for B3
B8: heterodimerized antibody GpH7-A5/GpH7-B3 variant S267_14T/GpL16-k0 (antibody, human IgG1, kappa)
heavy 1: not shown
heavy 2: not shown
light: B1 light
notes: as for B3
B9: heterodimerized antibody GpH7-A5/GpH7-B3 variant S267_16H/GpL16-k0 (antibody, human IgG1, kappa)
heavy 1: not shown
heavy 2: not shown
light: B1 light
notes: as for B3
B10: heterodimerized antibody GpH7-A5/GpH7-B3 variant S267_19Q/GpL16-k0 (antibody, human IgG1, kappa)
heavy 1: not shown
heavy 2: not shown
light: B1 light
notes: as for B3
B11: heterodimerized antibody GpH7-A5/GpH7-B3 variant V266_04F/GpL16-k0 (antibody, human IgG1, kappa)
heavy 1: not shown
heavy 2: not shown
light: B1 light
notes: as for B3
B12: heterodimerized antibody GpH7-A5/GpH7-B3 variant V266_06M/GpL16-k0 (antibody, human IgG1, kappa)
heavy 1: not shown
heavy 2: not shown
light: B1 light
notes: as for B3
B13: heterodimerized antibody GpH7-A5/GpH7-B3 variant V266_07I/GpL16-k0 (antibody, human IgG1, kappa)
heavy 1: not shown
heavy 2: not shown
light: B1 light
notes: as for B3
B14: heterodimerized antibody GpH7-A5/GpH7-B3 variant V266_08L/GpL16-k0 (antibody, human IgG1, kappa)
heavy 1: not shown
heavy 2: not shown
light: B1 light
notes: as for B3
B15: heterodimerized antibody GpH7-A5/GpH7-B3 variant Y300_10E/GpL16-k0 (antibody, human IgG1, kappa)
heavy 1: not shown
heavy 2: not shown
light: B1 light
notes: as for B3

target: T4, FcγRIa extracellular domain with C-terminal His tag (human, UniProt P12314 16-292); assay: SPR (Biacore); He/Con_1a divided by He/Con_2b (FcγRIIb)
T4 construct: extracellular domain; Soluble receptor expressed in FreeStyle293 cells; analyte in Biacore; also called FcgRI; FcgRIa; not shown: His tag at the C terminus
Experimental: (§1) The heterodimerized antibodies He Abs in which one of the H chains was introduced with an alteration were assayed for their binding activities to each activating FcγR and inhibitory FcγR according to the method described in Example 4. […] The activating FcγRs in FIGS. 26, 27, 28, and 29 are FcγRIa, FcγRIIa (R), FcγRIIa (H), and FcγRIIIa, respectively.
(§2) Analysis of interaction between objective antibody and the FcγR was carried out using Biacore T100 (GE Healthcare). HBS-EP+ (GE Healthcare) was used as the running buffer, and the measurement temperature was set to 25° C. Chips produced by immobilizing the antigen peptide by the amine coupling method to a Series S Sencor Chip CM5 (GE Healthcare), or alternatively, chips produced by allowing preliminarily biotinylated antigen peptides to interact with and immobilize onto a Series S Sensor Chip SA (certified) (GE Healthcare) were used. Antibodies of interest were captured onto an antigen peptide-immobilized chip, and allowed to interact to each FcγR diluted with running buffer. To regenerate and repeatedly use the chip, the antibodies captured on the chip were washed off by reacting 10 mM glycine-HCl, pH 1.5.

T4 sequence (P12314 16-292): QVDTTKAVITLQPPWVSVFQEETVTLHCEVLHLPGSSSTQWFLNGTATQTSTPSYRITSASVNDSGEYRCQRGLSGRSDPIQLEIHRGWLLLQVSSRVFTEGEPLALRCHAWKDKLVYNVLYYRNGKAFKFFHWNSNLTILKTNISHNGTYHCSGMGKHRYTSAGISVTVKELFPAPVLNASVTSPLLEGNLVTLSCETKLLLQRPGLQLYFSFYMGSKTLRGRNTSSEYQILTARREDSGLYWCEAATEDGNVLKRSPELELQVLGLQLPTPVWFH

Binder | He_1a/2b (Ia/IIb)
B1 | 1.27
B2 | 1.27

target: T1, FcγRIIa R (FcγRIIa, allotype R, Arg at …); assay: Biacore SPR; He/Con_2aR divided by He/Con_2b (FcγRIIb)

Binder | IIaR/IIb (He_2aR/2b)
B3 | 0.79
B4 | 0.58
B5 | 0.58
B6 | 0.56
B7 | 0.46
B8 | 0.78
B9 | 0.77
B10 | 0.62
B11 | 0.77
B12 | 0.6
B13 | 0.79
B14 | 0.6
B15 | 0.8

target: T4, FcγRIa extracellular domain with …; assay: SPR (Biacore), antibody captured on antigen peptide chip, FcγR as analyte; binding relative to GpH7-A5/GpH7-B3/GpL16-k0 = 100
Experimental: as §1, §2

Binder | He/Con_1a (Ia binding)
B1 | 102 % of control (control = 100)
B2 | 102 % of control (control = 100)

target: T2, FcγRIIb extracellular domain with …; assay: as above
Experimental: as §1, §2

Binder | He/Con_2b (IIb binding)
B1 | 80.6 % of control (control = 100)
B2 | 80.4 % of control (control = 100)

target: T1, FcγRIIa R (FcγRIIa, allotype R, Arg at …); assay: Biacore SPR; binding relative to GpH7-A5/GpH7-B3/GpL16-k0 (=100)

Binder | He/Con_2aR (IIaR binding)
B3 | 37.8 % of control
B4 | 122 % of control
B5 | 111 % of control
B6 | 173 % of control
B7 | 175 % of control
B8 | 81.9 % of control
B9 | 50.6 % of control
B10 | 135 % of control
B11 | 44.4 % of control
B12 | 150 % of control
B13 | 120 % of control
B14 | 142 % of control
B15 | 107 % of control

target: T3, FcγRIIb, extracellular domain with …; assay: as above

Binder | He/Con_2b (IIb binding)
B3 | 48 % of control
B4 | 210 % of control
B5 | 192 % of control
B6 | 310 % of control
B7 | 379 % of control
B8 | 104 % of control
B9 | 65.9 % of control
B10 | 218 % of control
B11 | 57.6 % of control
B12 | 251 % of control
B13 | 152 % of control
B14 | 236 % of control
B15 | 134 % of control
